The values that follow come from the Human Domainome abundance scans (Beltran et al. 2025).

To fix the notation:
B1: WW domain-binding protein 4, residues 8 to 43; numbered along this chain, O75554 (parent)
chain: QPKKFCDYCKCWIADNRPSVEFHERGKNHKENVAKR

± gives the uncertainty stated by the source.

In this data set the parent is B1. Put plainly: abundance fitness (aPCA) (normalised: wild type 0, dead -1); higher = more abundant; growth selection in yeast, the domain comes from the species named. Particulars: Homo sapiens.
Take QPKKFCDYCKCWIADNRPSVEFHERTKNHKENVAKR [G26T]: the abundance fitness was -0.123 ± 0.089.
In the case of QPKKFCDYCKCWIADNRPSVEFHERLKNHKENVAKR [G26L] it was -0.28 ± 0.079; in that of QPKKFCDYCKCWIADNRPSVEFHERQKNHKENVAKR [G26Q], 0.038 ± 0.085.
Turning to QPKKFCDYCKCWIADNRPSVEFHERWKNHKENVAKR [G26W], the abundance fitness is -0.277 ± 0.068.
Under QPKKFCDYCKCWIADNRPSVEFHERMKNHKENVAKR [G26M] stands 0.057 ± 0.091; under QPKKFCDYCKCWIADNRPSVEFHERSKNHKENVAKR [G26S], 0.04 ± 0.067; under QPKKFCDYCKCWIADNRPSVEFHERRKNHKENVAKR [G26R], -0.228 ± 0.059.
Under QPKKFCDYCKCWIADNRPSVEFHERKKNHKENVAKR [G26K] stands -0.257 ± 0.14; under QPKKFCDYCKCWIADNRPSVEFHERCKNHKENVAKR [G26C], -0.197 ± 0.097; under QPKKFCDYCKCWIADNRPSVEFHERAKNHKENVAKR [G26A], -0.072 ± 0.058.
In the case of QPKKFCDYCKCWIADNRPSVEFHEREKNHKENVAKR [G26E] it was 0.153 ± 0.1; in that of QPKKFCDYCKCWIADNRPSVEFHERDKNHKENVAKR [G26D], 0.015 ± 0.13; in that of QPKKFCDYCKCWIADNRPSVEFHERIKNHKENVAKR [G26I], -1 ± 0.28.
QPKKFCDYCKCWIADNRPSVEFHERHKNHKENVAKR [G26H]: the abundance fitness came to 0.08 ± 0.15.
Under QPKKFCDYCKCWIADNRPSVEFHERPKNHKENVAKR [G26P] stands -0.547 ± 0.11; under QPKKFCDYCKCWIADNRPSVEFHERVKNHKENVAKR [G26V], -0.18 ± 0.068; under QPKKFCDYCKCWIADNRPSVEFHERGKNHWENVAKR [K30W], -0.345 ± 0.071.
In the case of QPKKFCDYCKCWIADNRPSVEFHERGKNHTENVAKR [K30T] it was 0.201 ± 0.099; in that of QPKKFCDYCKCWIADNRPSVEFHERGKNHAENVAKR [K30A], -0.101 ± 0.069; in that of QPKKFCDYCKCWIADNRPSVEFHERGKNHGENVAKR [K30G], -0.019 ± 0.057.
On to QPKKFCDYCKCWIADNRPSVEFHERGKNHMENVAKR [K30M], for which the abundance fitness is -0.177 ± 0.14.
In the case of QPKKFCDYCKCWIADNRPSVEFHERGKNHVENVAKR [K30V] it was -0.036 ± 0.07; in that of QPKKFCDYCKCWIADNRPSVEFHERGKNHIENVAKR [K30I], 0.085 ± 0.084.
Under QPKKFCDYCKCWIADNRPSVEFHERGKNHRENVAKR [K30R] stands 0.049 ± 0.078.
In the case of QPKKFCDYCKCWIADNRPSVEFHERGKNHYENVAKR [K30Y] it was -0.391 ± 0.15; in that of QPKKFCDYCKCWIADNRPSVEFHERGKNHEENVAKR [K30E], 0.053 ± 0.07; in that of QPKKFCDYCKCWIADNRPSVEFHERGKNHPENVAKR [K30P], -0.246 ± 0.097.
QPKKFCDYCKCWIADNRPSVEFHERGKNHQENVAKR [K30Q]: the abundance fitness was -0.02 ± 0.079.
As to QPKKFCDYCKCWIADNRPSVEFHERGKNHDENVAKR [K30D], the abundance fitness is -0.265 ± 0.12.
In the case of QPKKFCDYCKCWIADNRPSVEFHERGKNHSENVAKR [K30S] it was -0.117 ± 0.069; in that of QPKKFCDYCKCWIADNRPSVEFHERGKNHCENVAKR [K30C], 0.022 ± 0.083; in that of QPKKFCDYCKCWIADNRPSVEFHERGKNHLENVAKR [K30L], -0.061 ± 0.061.
In the case of QPKKFCDYCKCWIADNRPSVEFHERGKEHKENVAKR [N28E] it was -0.015 ± 0.078; in that of QPKKFCDYCKCWIADNRPSVEFHERGKMHKENVAKR [N28M], 0.326 ± 0.16.
Regarding QPKKFCDYCKCWIADNRPSVEFHERGKFHKENVAKR [N28F], the abundance fitness was determined as 0.106 ± 0.092.
Consider QPKKFCDYCKCWIADNRPSVEFHERGKWHKENVAKR [N28W], for which the abundance fitness is 0.147 ± 0.1.
In the case of QPKKFCDYCKCWIADNRPSVEFHERGKTHKENVAKR [N28T] it was -0.102 ± 0.11.
Consider QPKKFCDYCKCWIADNRPSVEFHERGKVHKENVAKR [N28V], for which the abundance fitness was -0.016 ± 0.088.
Under QPKKFCDYCKCWIADNRPSVEFHERGKGHKENVAKR [N28G] stands 0.109 ± 0.081.
Under QPKKFCDYCKCWIADNRPSVEFHERGKLHKENVAKR [N28L] stands 0.046 ± 0.084; under QPKKFCDYCKCWIADNRPSVEFHERGKCHKENVAKR [N28C], -0.097 ± 0.2; under QPKKFCDYCKCWIADNRPSVEFHERGKQHKENVAKR [N28Q], -0.087 ± 0.11.
Under QPKKFCDYCKCWIADNRPSVEFHERGKSHKENVAKR [N28S] stands -0.001 ± 0.17; under QPKKFCDYCKCWIADNRPSVEFHERGKRHKENVAKR [N28R], 0.149 ± 0.062.
Consider QPKKFCDYCKCWIADNRPSVEFHERGKPHKENVAKR [N28P], for which the abundance fitness is -0.047 ± 0.11.
In the case of QPKKFCDYCKCWIADNRPSVEFHERGKNHKENMAKR [V33M] it was -0.074 ± 0.34; in that of QPKKFCDYCKCWIADNRPSVEFHERGKNHKENIAKR [V33I], -0.404 ± 0.23; in that of QPKKFCDYCKCWIADNRPSVEFHERGKNHKENPAKR [V33P], -0.315 ± 0.1.
Take QPKKFCDYCKCWIADNRPSVEFHERGKNHKENKAKR [V33K]: the abundance fitness is -0.278 ± 0.076.
Under QPKKFCDYCKCWIADNRPSVEFHERGKNHKENQAKR [V33Q] stands -0.195 ± 0.12; under QPKKFCDYCKCWIADNRPSVEFHERGKNHKENFAKR [V33F], -0.182 ± 0.14; under QPKKFCDYCKCWIADNRPSVEFHERGKNHKENEAKR [V33E], 0.022 ± 0.12.
In the case of QPKKFCDYCKCWIADNRPSVEFHERGKNHKENRAKR [V33R] it was -0.149 ± 0.066.
In the case of QPKKFCDYCKCWIADNRPSVEFHERGKNHKENLAKR [V33L] it was -0.205 ± 0.075.
QPKKFCDYCKCWIADNRPSVEFHERGKNHKENTAKR [V33T]: the abundance fitness is -0.23 ± 0.1.
Under QPKKFCDYCKCWIADNRPSVEFHERGKNHKENDAKR [V33D] stands -0.22 ± 0.098; under QPKKFCDYCKCWIADNRPSVEFHERGKNHKENAAKR [V33A], -0.006 ± 0.079; under QPKKFCDYCKCWIADNRPSVEFHERGKNHKENNAKR [V33N], -0.572 ± 0.24.
In the case of QPKKFCDYCKCWIADNRPSVEFHERGKNHKENGAKR [V33G] it was -0.22 ± 0.058.
For the variant QPKKFCDYCKCWIADNRPSVEFHEYGKNHKENVAKR [R25Y], the abundance fitness was -0.357 ± 0.14.
With QPKKFCDYCKCWIADNRPSVEFHEQGKNHKENVAKR [R25Q], the abundance fitness came to 0.049 ± 0.088.
Take QPKKFCDYCKCWIADNRPSVEFHETGKNHKENVAKR [R25T]: the abundance fitness amounted to 0.014 ± 0.081.
As to QPKKFCDYCKCWIADNRPSVEFHESGKNHKENVAKR [R25S], the abundance fitness is -0.037 ± 0.073.
In the case of QPKKFCDYCKCWIADNRPSVEFHEVGKNHKENVAKR [R25V] it was 0.003 ± 0.073; in that of QPKKFCDYCKCWIADNRPSVEFHEWGKNHKENVAKR [R25W], -0.331 ± 0.092; in that of QPKKFCDYCKCWIADNRPSVEFHERGKNDKENVAKR [H29D], -0.995 ± 0.45.
Under QPKKFCDYCKCWIADNRPSVEFHERGKNKKENVAKR [H29K] stands -0.562 ± 0.21; under QPKKFCDYCKCWIADNRPSVEFHERGKNFKENVAKR [H29F], -1 ± 0.32.
